± gives the uncertainty stated by the source.
Test: protein stability index of a GFP-peptide fusion (yeast GPS) (PSI 1-4); higher = more stable; sorted into four equal gates, so the index is relative within each strain
Summary of the method: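 For each peptide, the protein stability index sums the read frequency in every gate after multiplying it by the gate number. Read frequencies came from plasmids that were PCR-amplified from each gate and Illumina-sequenced, with reads assigned to strains by barcodes. The gates were four equal bins of GFP/Cherry fluorescence ratio applied to mid-log yeast in leucine-free medium carrying a pooled library of tiled 17-residue yeast protein peptides fused downstream of GFP on a Cherry-expressing plasmid.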

Sequence | protein stability index (doa10∆) | protein stability index (pdr5∆) | protein stability index (san1∆) | protein stability index (ubr1∆)
SVRRSGALDVEGLCIVA [RRP45] | 2.47 ± 0.15 | 3.06 ± 0.11 | 3 ± 0.11 | 2.83 ± 0.18
IVDTSGRHHQEEELFQE [SRP54] | 3.31 ± 0.07 | 3.13 ± 0.043 | 3.07 ± 0.056 | 3.24 ± 0.053
PPNNARRTYNTLEDKFL [ISW2] | 2.09 ± 0.04 | 2.02 ± 0.045 | 1.6 ± 0.11 | 1.95 ± 0.035
YYAHSIPSSKIDDFTTR [SNU114] | 2.96 ± 0.07 | 3.15 ± 0.078 | 3.08 ± 0.067 | 3.32 ± 0.077
NSGVGSAKGPEIIPLQD [MED6] | 3.35 ± 0.16 | 3.21 ± 0.088 | 3.16 ± 0.071 | 3.23 ± 0.064
FLANHKDRLYCGKCHSV [RPS31] | 2.38 ± 0.17 | 2.61 ± 0.13 | 2.02 ± 0.16 | 2.69 ± 0.082
QLLGDVMTYKGEVLGIT [RPO31] | 3.28 ± 0.11 | 3.43 ± 0.069 | 3.24 ± 0.14 | 3.33 ± 0.075
RKSDQQDVLKGSSASSR [POP1] | 3.29 ± 0.12 | 3.06 ± 0.1 | 3.14 ± 0.071 | 3.31 ± 0.096
MLQISDDNEMTRDDLLT [RRI2] | 2.93 ± 0.1 | 3.27 ± 0.1 | 3.17 ± 0.038 | 3.1 ± 0.056
LVFQLAKNFSAQKRVVS [SRB8] | 1.69 ± 0.053 | 2.06 ± 0.072 | 1.86 ± 0.076 | 1.94 ± 0.058
AAKKRRPAAKGKNLSFK [RRP6] | 2.35 ± 0.24 | 2.77 ± 0.14 | 2.35 ± 0.2 | 2.72 ± 0.1
YHSKRDASTPLRSTENG [RPB2] | 3.12 ± 0.1 | 3.32 ± 0.071 | 3.12 ± 0.055 | 3.33 ± 0.05
SLAPEADLDSLIIRNDS [RPT3] | 2.92 ± 0.11 | 3.01 ± 0.08 | 2.77 ± 0.055 | 2.82 ± 0.071
DMDAQGRSDSNTEEKAE [YGL100W/SEH1] | 1.57 ± 0.038 | 1.67 ± 0.051 | 1.5 ± 0.14 | 1.4 ± 0.041
ERAARVVKGRVEKTLLS [RPO31] | 3.37 ± 0.19 | 3.27 ± 0.18 |  | 3.5 ± 0.1
TVGSSNGGLIHVVTREK [RPO21] | 2.98 ± 0.15 | 3.19 ± 0.12 | 2.87 ± 0.13 | 3.09 ± 0.07
EEEDAKNPLFSYVEPVL [RPL31A] | 2.88 ± 0.042 | 2.63 ± 0.036 | 2.12 ± 0.047 | 2.21 ± 0.026
IVVLVPKFGVEGLIRLD [DIS3] | 2.16 ± 0.07 | 2.41 ± 0.063 | 2.31 ± 0.085 | 2 ± 0.054
DSLNQLEIRNKICSSEM [RGR1] | 2.24 ± 0.22 | 3.11 ± 0.11 | 2.65 ± 0.14 | 2.61 ± 0.22
NKPIKRMLSSILDINVS [SWP82] | 2.52 ± 0.046 | 2.6 ± 0.041 | 2.48 ± 0.053 | 2.31 ± 0.027
RKIEFPSLRDRRERRLI [RPT3] | 3.31 ± 0.052 | 3.34 ± 0.086 | 2.68 ± 0.066 | 3.32 ± 0.042
IDSPELLSLISTTAALQ [RPN7] | 2.23 ± 0.04 | 2.65 ± 0.041 | 2.32 ± 0.041 | 2.45 ± 0.032
SISSVVSEDLLDERGHE [RPN4] | 3.11 ± 0.1 | 2.99 ± 0.096 | 2.85 ± 0.056 | 2.79 ± 0.057
GLCMLGTGKPEAIHDMF [RPN2] | 2.75 ± 0.15 | 3.46 ± 0.29 | 3.19 ± 0.064 | 3.18 ± 0.075
ARIHAQNYLKTYNEDIP [PRE9] | 2.28 ± 0.051 | 1.99 ± 0.079 | 2.75 ± 0.085 | 2.05 ± 0.061
FKSALANLEDIIFEIEK [RRP6] | 3.21 ± 0.13 | 3.13 ± 0.096 | 3.2 ± 0.071 | 2.83 ± 0.12

Sequence | protein stability index (doa10∆) | protein stability index (pdr5∆) | protein stability index (san1∆) | protein stability index (ubr1∆)
TDLESLSSGESNEIKVT [SIR4] | 2.99 ± 0.13 | 2.93 ± 0.11 | 2.69 ± 0.1 | 2.46 ± 0.071
PNLATFISSGTSLLDSL [YJL039C/NUP192] | 2.23 ± 0.047 | 2.6 ± 0.046 | 2.23 ± 0.057 | 2.1 ± 0.037
AGVPRQAINLGQVVLTP [RPL14A] | 2.09 ± 0.15 | 2.64 ± 0.13 | 1.58 ± 0.23 | 2.04 ± 0.21
VMEYDVKFYEIFNFDQL [SRB8] | 1.97 ± 0.11 | 1.9 ± 0.12 | 1.66 ± 0.13 | 1.74 ± 0.1
RSTMMKFLKIASLKHDN [RPN3] | 2.18 ± 0.067 | 2.43 ± 0.072 | 2.86 ± 0.089 | 3.01 ± 0.057
VSSPESEKNKRQSKSSG [ITC1] | 3.03 ± 0.059 | 3.17 ± 0.052 | 2.98 ± 0.045 | 3.14 ± 0.038
DLESMGLTQLYKKSTEN [MED7] | 2.9 ± 0.071 | 3.13 ± 0.067 | 2.81 ± 0.067 | 2.9 ± 0.047
GLNRHYYSLNIDYHKTA [RPN11] |  | 2.27 ± 0.29 | 2.85 ± 0.12 | 2.61 ± 0.14
RNSFIRDMIMKRNSDKV [ITC1] | 2.84 ± 0.16 | 2.86 ± 0.14 | 2.29 ± 0.16 | 2.83 ± 0.2
PFNFTVTLFQMAILLLY [CDC53] | 1.65 ± 0.045 | 1.59 ± 0.045 | 1.41 ± 0.11 | 1.63 ± 0.039
QFSLPNGDNSTTTNTDQ [SNF12] | 2.47 ± 0.047 | 2.2 ± 0.055 | 2.318 ± 0.014 | 2.31 ± 0.05
IFKDKEKLVSDLRLIKV [SMC1] | 3.25 ± 0.26 | 3.23 ± 0.089 | 3.31 ± 0.21 | 3.44 ± 0.15
PARSSSLRSNVVVAETS [YAR002W/NUP60] | 2.2 ± 0.04 | 2.62 ± 0.04 | 2.19 ± 0.058 | 2.58 ± 0.035
DFNMKLAINAKTITSGL [RPB2] | 2.99 ± 0.087 | 3.06 ± 0.086 | 2.76 ± 0.061 | 2.99 ± 0.05
ADVLYKTAFKPHELTES [QCR2] | 3.11 ± 0.062 | 3.17 ± 0.059 | 2.98 ± 0.051 | 3.15 ± 0.045
IDALGTEFSKNDLEVGV [SCL1] | 2.67 ± 0.097 | 2.46 ± 0.11 | 2.49 ± 0.11 | 2.65 ± 0.08
TDRQKKLLGVDMQSSVD [YLR018C/POM34] | 3.2 ± 0.057 | 3.08 ± 0.055 | 3.19 ± 0.043 | 3.15 ± 0.044
GNLYSKVMNNSFKLCTL [YML103C/NUP188] | 3.21 ± 0.21 | 2.8 ± 0.15 | 2.87 ± 0.14 | 3.07 ± 0.22
RAGKYELVKSYSWLLFE [YJR042W/NUP85] | 1.62 ± 0.11 | 1.78 ± 0.08 | 1.18 ± 0.14 | 1.33 ± 0.062
FAADGDALVKRFKNSVK [PRE7] | 2.64 ± 0.28 |  |  | 
CPLSQQFCGIKERNSLK [BRR2] | 2.88 ± 0.16 | 3.14 ± 0.1 | 2.71 ± 0.094 | 3.08 ± 0.076
LEHIDSKSEFAHRIMLT [FAS2] | 2.17 ± 0.063 | 2.19 ± 0.069 | 2.72 ± 0.075 | 2.25 ± 0.063
TTTLAFRFQGGIIVAVD [PRE2] | 3.27 ± 0.096 | 3.07 ± 0.083 | 2.81 ± 0.072 | 3.26 ± 0.09
FNNEAPPQTRKFQPPPG [SMB1] | 2.86 ± 0.1 | 3.11 ± 0.1 | 3.01 ± 0.075 | 3.13 ± 0.085
SAEDEENIIQRLQAANS [CDC53] | 3.15 ± 0.081 | 3.4 ± 0.066 | 3.15 ± 0.048 | 3.02 ± 0.065
GGVMANRKIARMRHSKR [YOR098C/NUP1] | 3.31 ± 0.13 | 3.6 ± 0.085 | 3.34 ± 0.09 | 3.32 ± 0.1

— the supplement of paper PMC9732359
